Data on one molecule can be found in patent publication US20200181261A1 (Bayer, published 2020).

The target of test [1] is T1, Macaca fascicularis CEACAM6, extracellular (mature form), obtained by Factor Xa cleavage of TPP-2443 (Macaca fascicularis).
T1 construct: used biotinylated in some assays; also called APP-319; Cynomolgus CEACAM6
T1 chain: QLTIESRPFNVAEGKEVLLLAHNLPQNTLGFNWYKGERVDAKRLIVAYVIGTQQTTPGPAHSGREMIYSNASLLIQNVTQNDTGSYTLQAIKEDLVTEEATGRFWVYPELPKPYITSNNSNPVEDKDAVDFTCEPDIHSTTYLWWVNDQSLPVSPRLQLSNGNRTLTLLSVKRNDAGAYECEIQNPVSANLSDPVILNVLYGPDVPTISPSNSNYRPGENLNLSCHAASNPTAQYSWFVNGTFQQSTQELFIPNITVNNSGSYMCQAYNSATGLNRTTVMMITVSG
As to the kind of experiment: ELISA, antigen coated. As for the experimental part: (§1) ELISAs were used to characterize the binding of antibodies to various CEACAM paralogs and orthologs. Black 384-well plates were coated with […] of various CEACAM protein preparations at 2 μg/ml in coating buffer (Candor) for 1 h at 37° C. After one wash with PBS/0.05% Tween-20, wells were blocked with 100% Smart Block (Candor) for one hour at 37° C. After three washes with PBS/0.05% Tween-20, dilution series of the antibodies in PBS/0.05% Tween-20/10% Smart Block ranging from 2 μg/ml to 2 ng/ml were added and the plates were incubated for 1 h at room temperature. After three washes with PBS/0.05% Tween-20, an appropriate secondary antibody was added. For detection of proteins with a human Fc such as TPP-1173, an anti-human IgG HRP (Sigma A0170) was used at 1:10.000 dilution. For detection of proteins with a mouse Fc such as TPP-1744 an anti-mouse IgG HRP (ThermoScientific 31432) was used at 1:10.000 dilution. PBS/0.05% Tween-20/10% Smart Block was used as dilution buffer. The plates were incubated for 1 hour at room temperature. After three washes, the plates were developed with Amplex Red (Life Technologies) and fluorescence was read at an emission wavelength of 590 nm. GraphPad Prism 6.0 software was used to calculate EC₅₀ values using four-parameter non-linear curve fit. […]

The target in test [2] is T2, human CEACAM5, extracellular (mature form), R&D Systems 4128-CM (human, UniProt P06731 35-685).
T2 construct: used biotinylated in some assays; also called TPP-1438; hC5
T2 sequence: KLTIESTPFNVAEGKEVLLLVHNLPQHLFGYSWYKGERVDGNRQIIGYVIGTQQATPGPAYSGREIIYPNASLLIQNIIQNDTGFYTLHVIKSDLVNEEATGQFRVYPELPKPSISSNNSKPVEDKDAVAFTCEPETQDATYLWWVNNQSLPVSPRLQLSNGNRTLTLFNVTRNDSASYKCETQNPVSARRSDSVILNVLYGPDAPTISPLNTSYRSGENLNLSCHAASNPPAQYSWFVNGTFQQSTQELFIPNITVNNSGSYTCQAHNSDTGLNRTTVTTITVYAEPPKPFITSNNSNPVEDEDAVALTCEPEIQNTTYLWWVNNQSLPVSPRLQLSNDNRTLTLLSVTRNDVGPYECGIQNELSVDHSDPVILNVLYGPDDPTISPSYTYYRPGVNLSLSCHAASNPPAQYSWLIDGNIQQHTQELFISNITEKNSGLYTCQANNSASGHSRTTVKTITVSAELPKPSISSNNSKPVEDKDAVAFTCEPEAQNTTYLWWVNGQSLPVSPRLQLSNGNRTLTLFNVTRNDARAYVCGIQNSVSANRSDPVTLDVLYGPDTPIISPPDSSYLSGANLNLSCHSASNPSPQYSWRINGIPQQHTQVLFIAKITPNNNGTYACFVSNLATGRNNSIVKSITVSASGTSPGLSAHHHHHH
The test can be described thus: ELISA, antigen coated. As to the method: as §1

The target of test [3] is T3, Human CEACAM6-Domain 1-His (expressed in E. coli), wild-type (human).
T3 construct: entry includes the His tag; also called hDOM1
T3 chain: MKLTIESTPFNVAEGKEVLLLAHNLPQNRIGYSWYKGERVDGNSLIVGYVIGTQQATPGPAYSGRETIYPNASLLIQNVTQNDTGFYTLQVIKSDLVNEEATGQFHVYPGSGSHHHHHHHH
The test can be described thus: domain mapping ELISA, antigen coated. As for the experimental part:
(§2) For ELISA analysis, the Fc-fused domain chimeras and the single domain 1 were coated on Nunc MaxiSorb plates and blocked with SmartBlock solution. After incubation with an IgG-concentration series (1 nM-1000 nM) for 1 h, plates were washed with PBS/T. Analysis of the bound IgGs to the CEACAM6 domain constructs was achieved over detection via Anti-Human IgG (Fab specific)-Peroxidase antibody (A0293, Sigma). Fluorescence detection was performed with AmplexRed (A12222, Invitrogen) following standard protocols.

For test [4], the target named is T4, Human CEACAM6-Dom2-MacMul-Xa-Fc-His (human, Domain 2 from Macaca mulatta).
T4 construct: domain chimera fused to Xa-Fc-His; also called TPP-1792; DOM2 MM
As to the kind of experiment: domain mapping ELISA, antigen coated. As to the method: as §2

For test [5], the target named is T5, Macaca mulatta CEACAM6-Xa-Fc-His (Macaca mulatta).
T5 construct: extracellular (mature form) fused to Factor Xa site, human IgG1 Fc and His tag; the entry is the whole fusion; also called TPP-1306; MM WT
As to the kind of experiment: SPR, antibody captured, antigen as analyte. As for the experimental part:
Surface plasmon resonance (SPR) experiments for quantitative binding analyses were performed either using a Biacore T100, Biacore T200 or a Biacore 4000 instrument (GE Healthcare Biacore, Inc.) equipped with Series S Sensor Chips CM5 (GE Healthcare Biacore, Inc.). Binding assays were carried out at 25° C. with assay buffer HBS-EP+(10 mM HEPES pH 7.4, 150 mM NaCl, 3 mM EDTA, 0.05% Surfactant P20). Antibodies were captured with an anti-hIgG capture antibody covalently immobilized to the chip surface via amine coupling chemistry. Reagents for amine coupling (1-ethyl-3-(3-dimethylaminopropyl) carbodiimide hydrochloride (EDC), N-hydroxysuccinimide (NHS), ethanolamine-HCl pH 8.5) were used from the Amine Coupling Kit (GE Healthcare, product code BR-1000-50). Anti-hIgG, anti-mIgG capture antibodies and immobilization buffer (10 mM sodium acetate pH 5.0) were used from the Human Antibody Capture Kit (GE Healthcare, BR-1008-39) and the Mouse Antibody Capture Kit (GE Healthcare, BR-1008-38), respectively. The sensor chip surface was activated with a freshly prepared solution of 0.2 M EDC and 0.05 M NHS passed over the chip surface for 420 s at a flow rate of 10 μl/min, followed by an injection of anti-hIgG or anti-mIgG capture antibody (dissolved to 25 μg/ml in immobilization buffer) for 180 s at a flow rate of […]. Excess of activated groups were blocked with a 1 molar solution of ethanolamine injected at a flow rate of 10 μl/min for 420 s.
CEACAM antigens were used as analyte to determine KD values. Antibodies were captured for 20 s at a flow rate of 10 μl/min prior to each analyte injection.
Obtained sensorgrams were double-referenced, i.e. in-line reference cell correction followed by buffer sample subtraction.

B1: Neo201 (human IgG1) (antibody, V domains shown)
VH: QVQLVQSGAEVKKPGASVKVSCKASGYTFTDYAMHWVRQAPGQRLEWMGLISTYSGDTKYNQNFQGRVTMTVDKSASTAYMELSSLRSEDTAVYYCARGDYSGSRYWFAYWGQGTLVTVSS
VL: DIQMTQSPSSLSASVGDRVTITCQASENIYGALNWYQRKPGKSPKLLIYGASNLATGMPSRFSGSGSGTDYTFTISSLQPEDIATYYCQQVLSSPYTFGGGTKLEIKR
notes: based on US20130189268; also called TPP-1173; Neo201-hIgG1
In the case of B1, the EC50 in test [1] was found to be 1.35 nM; in test [2], 0.09 nM. The binding result was “no binding (tested: 1000 nM IgG)” in test [3] and “binds” in test [4]. Moreover, binding in test [5] was characterised by a dissociation constant (Kd) of 23 nM.
